Reference: patent publication US20180185464A1

Target: human DC-SIGN (human) (UniProt Q9NNX6)
Assay: cell-based or functional assay

Chain of UniProt Q9NNX6 (Q9NNX6 whole entry): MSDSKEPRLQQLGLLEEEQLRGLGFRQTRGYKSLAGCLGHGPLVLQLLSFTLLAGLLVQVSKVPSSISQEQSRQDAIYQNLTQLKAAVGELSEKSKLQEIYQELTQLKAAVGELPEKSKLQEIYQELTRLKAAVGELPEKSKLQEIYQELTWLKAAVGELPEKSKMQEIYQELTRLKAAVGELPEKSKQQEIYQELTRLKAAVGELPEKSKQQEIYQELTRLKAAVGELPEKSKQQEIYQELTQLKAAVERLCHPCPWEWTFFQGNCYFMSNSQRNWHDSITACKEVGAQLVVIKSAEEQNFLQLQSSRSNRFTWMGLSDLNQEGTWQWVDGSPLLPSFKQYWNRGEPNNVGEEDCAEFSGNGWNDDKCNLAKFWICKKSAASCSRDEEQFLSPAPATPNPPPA

Substance | Internalisation (MFI) DC-SIGN transgenic CD11c+ cells, PBS wash; liposomes engrafted with FliC-6his 23.04 µg/mL, 37 C (unengrafted 74.3) | Internalisation (MFI) DC-SIGN transgenic CD11c+ cells, imidazole wash; liposomes engrafted with FliC-6his 23.04 µg/mL, 37 C (unengrafted 77.2) | Internalisation (MFI) DC-SIGN transgenic CD11c+ cells, PBS wash; liposomes engrafted with gp120-6his 27.43 µg/mL, 37 C (unengrafted 74.3) | Internalisation (MFI) DC-SIGN transgenic CD11c+ cells, imidazole wash; liposomes engrafted with gp120-6his 27.43 µg/mL, 37 C (unengrafted 77.2)
histidine-tagged FliC (FliC-6his) (from UniProt P06179 2-495) (ligand) | 70.8 | 79.2 | – | –
histidine tagged gp120 (gp120-6his) | – | – | 118 | 126
